From US20260167959A1, “APTAZYME-BASED REGULATABLE GENE EXPRESSION SYSTEMS” (REJUVENATE BIO INC, priority 2022, published 2026)

These molecules were tested on Renilla luciferase RNA (assay: Barcoded aptazyme variant library screen: un-cleaved Renilla luciferase RNA by barcode read counts, HEK293-T cells). Conditions: un-cleaved Renilla luciferase RNA, HEK293-T cells cultured with 1 mM theophylline (ON) over without theophylline (OFF); barcode read counts, triplicate.
Format: cell-based
In short: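 Aptazyme variants (seven theophylline aptamers inserted after each T3H48 ribozyme nucleotide, 9-nt barcoded) cloned into the 3′ UTR of Renilla luciferase in psiCHECK-2; cells cultured ± theophylline, in triplicate. RNA and DNA barcodes amplified and sequenced; normalized read counts gave un-cleaved RNA fraction and ON/OFF fold-change.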

Molecule | Fold change in RNA expression between the ON state and the OFF state [fold]
RA183 (nucleic acid, expressed or natural sequence) DNA: GCGCGTCCTGGATTCGCGGAAACGCGTACATCCAGCTGAGAATACCAGCATCGTCTTGATGCCCTTGGAAGTCTACGAGTCCCAAATAGGACGAAACGCGC | 1.3
RA018 (nucleic acid, expressed or natural sequence) DNA: GCGCGTCCTGGATTCGCGGAAACGCGTACATCCAGCTGACGAGTCCCAAAGTGATACCAGCATCGTCTTGATGCCCTTGGCAGCACTATAGGACGAAACGCGC | 2.8
RA189 (nucleic acid, expressed or natural sequence) DNA: GCGCGTCCTGGATTCGGAATACCAGCATCGTCTTGATGCCCTTGGAAGTCCGCGGAAACGCGTACATCCAGCTGACGAGTCCCAAATAGGACGAAACGCGC | 1.2
RA184 (nucleic acid, expressed or natural sequence) DNA: GAGAATACCAGCATCGTCTTGATGCCCTTGGAAGTCTCGCGTCCTGGATTCGCGGAAACGCGTACATCCAGCTGACGAGTCCCAAATAGGACGAAACGCGC | 1.3
RA190 (nucleic acid, expressed or natural sequence) DNA: GCGCGTCCTGGATTCGCGAGTGATACCAGCATCGTCTTGATGCCCTTGGCAGCACTGAAACGCGTACATCCAGCTGACGAGTCCCAAATAGGACGAAACGCGC | 1.2
RA186 (nucleic acid, expressed or natural sequence) DNA: GCGCGTCCTGGATTCGCGCGAGAATACCAGCATCGTCTTGATGCCCTTGGAAGTCTCGGAAACGCGTACATCCAGCTGACGAGTCCCAAATAGGACGAAACGCGC | 1.3
RA191 (nucleic acid, expressed or natural sequence) DNA: GCGCGTCCTGGATTCGCGGAACGAGAATACCAGCATCGTCTTGATGCCCTTGGAAGTCTCGACGCGTACATCCAGCTGACGAGTCCCAAATAGGACGAAACGCGC | 1.2
RA182 (nucleic acid, expressed or natural sequence) DNA: GCGCGTCCTGGATTCGCGGAAACGCGGAGAATACCAGCATCGTCTTGATGCCCTTGGAAGTCTCTACATCCAGCTGACGAGTCCCAAATAGGACGAAACGCGC | 1.3
RA188 (nucleic acid, expressed or natural sequence) DNA: GCGCGTCCTGGATTCGCGGAAACGCGTACATCCAGCTGACGAGTCCCAAATAGGACGAAGAGAATACCAGCATCGTCTTGATGCCCTTGGAAGTCTCACGCGC | 1.2
RA187 (nucleic acid, expressed or natural sequence) DNA: GCGCGTCCTGGATTCGCGGAAACGCGTACATCCAGCTGACGAGTCCCAAATAGGACGAAACGCGCGAGAATACCAGCATCGTCTTGATGCCCTTGGAAGTCTC | 1.3
RA185 (nucleic acid, expressed or natural sequence) DNA: GCGCGTCCTGGATTCGCGGAAACGCGTACATCCAGCTGACGAGTCCCAAATACGGAATACCAGCATCGTCTTGATGCCCTTGGAAGTCCGGGACGAAACGCGC | 1.3
